Target: human LDL (low-density lipoprotein) (human)
Assay: SPR; LDL amine-coupled to a CM5 chip (Biacore T100); LDLR^ecto (5-388 nM) or ALK1^ecto (0.19-15.3 uM) as analytes, single cycle kinetics; 25 °C; 25 mM HEPES pH 7.4, 150 mM NaCl, 0.1 mM CaCl2; 1:1 binding model; apparent

Chain of ALK1^ecto-Fc (P37023 22-118): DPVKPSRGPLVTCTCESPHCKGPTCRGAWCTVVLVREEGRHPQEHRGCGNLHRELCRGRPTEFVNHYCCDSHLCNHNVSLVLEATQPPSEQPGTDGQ

Substance | Kd [nM]
ALK1^ecto-Fc (from UniProt P37023 22-118) (Fc fusion) | 200
LDLR^ecto-(His)6 (from UniProt P01130 22-788) (domain or fragment) | 7

Source: article PMC5121336
